In patent EP4296276A1 (Forschungszentrum Jülich GmbH, dated 2023):
Residue numbers refer to the chain shown, from its start. Ends that are not written are not given here.

T1: DISC1 C-region (residues 691-836) mutant S713E (human, UniProt Q9NRI5 691-836)
T1 construct: range 691-836; Expression and tag are described only for the WT construct (N-terminal His6)
T1 sequence (looked up): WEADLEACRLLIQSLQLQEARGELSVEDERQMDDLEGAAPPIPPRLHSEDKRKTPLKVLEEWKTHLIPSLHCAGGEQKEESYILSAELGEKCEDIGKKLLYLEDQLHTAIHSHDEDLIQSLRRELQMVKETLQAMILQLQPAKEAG

T2: DISC1 C-region (residues 691-836) mutant S704C (human, UniProt Q9NRI5 691-836)
T2 construct: range 691-836; Expression and tag are described only for the WT construct (N-terminal His6)
T2 sequence (looked up): T1 sequence (looked up) with S14C, E23S

T3: wild-type (WT) human DISC1 C-region (residues 691-836) (human, UniProt Q9NRI5 691-836)
T3 construct: range 691-836; Expressed in E. coli as an N-terminal His6 fusion construct, purified on Co2+-NTA and by size exclusion; Used in solution at 2 µM in BLI; also called WT C-region; C-region of DISC1; not shown: N-terminal His6 fusion tag
T3 sequence (looked up): T1 sequence (looked up) with E23S

B1: Flm6 (WNHPMNIRSISWHKDS-NH2) (peptide)
peptide: WNHPMNIRSISWHKDS-NH2
notes: Phage display hit selected on monomeric WT C-region; Immobilised on the BLI sensor by EDC/NHS coupling
B2: Flm1 (IWAGHIHDWWRRGQGS-NH2) (peptide)
peptide: IWAGHIHDWWRRGQGS-NH2
modifications: not fully specified; printed as IWAGHIHDWWRRGQGS-NH2
notes: as for B1
B3: Flo8 (KYTAIHEWYKAHNGGA-NH2) (peptide)
peptide: KYTAIHEWYKAHNGGA-NH2
notes: Phage display hit selected on oligomeric WT C-region; Immobilised on the BLI sensor by EDC/NHS coupling
B4: Flo11 (TSGVPWWKFQQQVRRT-NH2) (peptide)
peptide: TSGVPWWKFQQQVRRT-NH2
notes: as for B3
B5: Flo3 (HISMQTYKWSQWAKHQ-NH2) (peptide)
peptide: HISMQTYKWSQWAKHQ-NH2
notes: as for B3
B6: Flo1 (FPHPTLKHREFMRHVS-NH2) (peptide)
peptide: FPHPTLKHREFMRHVS-NH2
notes: as for B3
B7: Flo6 (SNWHPRHFFMSPSSPQ-NH2) (peptide)
peptide: SNWHPRHFFMSPSSPQ-NH2
notes: as for B3
B8: Flm9 (PWYNAPHSHGFWGSGR-NH2) (peptide)
peptide: PWYNAPHSHGFWGSGR-NH2
notes: as for B1
B9: Flm5 (GIKSLISNKMHTQWNY-NH2) (peptide)
peptide: GIKSLISNKMHTQWNY-NH2
notes: as for B1
B10: Flm2 (AWQHHELKWKQYQGWR-NH2) (peptide)
peptide: AWQHHELKWKQYQGWR-NH2
notes: as for B1
B11: Flm11 (HKLHHLLKWENQHKVE-NH2) (peptide)
peptide: HKLHHLLKWENQHKVE-NH2
notes: as for B1
B12: Flo5 (QDNPWWHEHKHWKSWP-NH2) (peptide)
peptide: QDNPWWHEHKHWKSWP-NH2
notes: as for B3

The binders below were run against T1, DISC1 C-region (residues 691-836) … (assay: BLI (Octet), peptide immobilised, protein 2 µM; KD = koff/kon).

**Q.** How did the Kd turn out when B1 was run?
**A.** 1070 nM

**Q.** Which Kd does the source give for B2 here?
**A.** 80 nM

**Q.** B3 was tested. Which Kd did it give?
**A.** 460 nM

**Q.** B4 was tested. Which Kd did it give?
**A.** 890 nM

**Q.** For B5, which Kd is on record?
**A.** 420 nM

**Q.** How did the Kd turn out when B6 was run?
**A.** 70 nM

**Q.** For B7, which Kd is on record?
**A.** 460 nM

**Q.** B8 was tested. Which Kd did it give?
**A.** 1500 nM

**Q.** With B9 as the binder, how does the Kd read?
**A.** 80 nM

**Q.** B10 was tested. Which Kd did it give?
**A.** 220 nM

**Q.** For B11, which Kd is on record?
**A.** 420 nM

**Q.** For B12, which Kd is on record?
**A.** 210 nM

The binders below were run against T2, DISC1 C-region (residues 691-836) … in the same assay as above.

**Q.** For B1, which Kd is on record?
**A.** 2240 nM

**Q.** Which Kd does the source give for B2 here?
**A.** 80 nM

**Q.** For B3, which Kd is on record?
**A.** 1040 nM

**Q.** With B4 as the binder, how does the Kd read?
**A.** 1060 nM

**Q.** How did the Kd turn out when B5 was run?
**A.** 270 nM

**Q.** For B6, which Kd is on record?
**A.** 160 nM

**Q.** For B7, which Kd is on record?
**A.** 720 nM

**Q.** For B8, which Kd is on record?
**A.** 1490 nM

**Q.** How did the Kd turn out when B9 was run?
**A.** 150 nM

**Q.** How did the Kd turn out when B10 was run?
**A.** 150 nM

**Q.** With B11 as the binder, how does the Kd read?
**A.** 720 nM

**Q.** Which Kd does the source give for B12 here?
**A.** 360 nM

Each binder was assayed against T3, wild-type (WT) human DISC1 C-region … in the same assay as above.

**Q.** B1 was tested. Which Kd did it give?
**A.** 2010 nM

**Q.** With B2 as the binder, how does the Kd read?
**A.** 150 nM

**Q.** How did the Kd turn out when B3 was run?
**A.** 2620 nM

**Q.** With B4 as the binder, how does the Kd read?
**A.** 3680 nM

**Q.** B5 was tested. Which Kd did it give?
**A.** 2620 nM

**Q.** With B6 as the binder, how does the Kd read?
**A.** 100 nM

**Q.** For B7, which Kd is on record?
**A.** 2360 nM

**Q.** Which Kd does the source give for B8 here?
**A.** 3200 nM

**Q.** How did the Kd turn out when B9 was run?
**A.** 640 nM

**Q.** With B10 as the binder, how does the Kd read?
**A.** 640 nM

**Q.** How did the Kd turn out when B11 was run?
**A.** 1270 nM

**Q.** B12 was tested. Which Kd did it give?
**A.** 250 nM

The binders below were run against DISC1 C-region mutant L807-frameshift (human) (UniProt Q9NRI5) in the same assay as above.

**Q.** Which Kd does the source give for WNHPMNIRSISWHKDS-NH2 [Flm6 (…-NH2)] here?
**A.** 530 nM

**Q.** With HISMQTYKWSQWAKHQ-NH2 [Flo3 (…-NH2)] as the binder, how does the Kd read?
**A.** 400 nM

**Q.** How did the Kd turn out when FPHPTLKHREFMRHVS-NH2 [Flo1 (…-NH2)] was run?
**A.** 40 nM

**Q.** Which Kd does the source give for IWAGHIHDWWRRGQGS-NH2 (not fully specified; printed as IWAGHIHDWWRRGQGS-NH2) [Flm1 (…-NH2)] here?
**A.** 200 nM

**Q.** KYTAIHEWYKAHNGGA-NH2 [Flo8 (…-NH2)] was tested. Which Kd did it give?
**A.** 170 nM

**Q.** Which Kd does the source give for TSGVPWWKFQQQVRRT-NH2 [Flo11 (…-NH2)] here?
**A.** 160 nM

**Q.** With SNWHPRHFFMSPSSPQ-NH2 [Flo6 (…-NH2)] as the binder, how does the Kd read?
**A.** 170 nM

**Q.** For PWYNAPHSHGFWGSGR-NH2 [Flm9 (…-NH2)], which Kd is on record?
**A.** 390 nM

**Q.** GIKSLISNKMHTQWNY-NH2 [Flm5 (…-NH2)] was tested. Which Kd did it give?
**A.** 110 nM

**Q.** Which Kd does the source give for AWQHHELKWKQYQGWR-NH2 [Flm2 (…-NH2)] here?
**A.** 110 nM

**Q.** For HKLHHLLKWENQHKVE-NH2 [Flm11 (…-NH2)], which Kd is on record?
**A.** 540 nM

**Q.** With QDNPWWHEHKHWKSWP-NH2 [Flo5 (…-NH2)] as the binder, how does the Kd read?
**A.** 270 nM
